Measurements published in patent publication US20040091995A1.

Biological target: human carcinoembryonic antigen (CEA) on MC-38-CEA-2 cells (human) (UniProt P06731)
Assay: FACS analysis of MC-38-CEA-2 tumor cells

Sequence of UniProt P06731 (P06731 35-702): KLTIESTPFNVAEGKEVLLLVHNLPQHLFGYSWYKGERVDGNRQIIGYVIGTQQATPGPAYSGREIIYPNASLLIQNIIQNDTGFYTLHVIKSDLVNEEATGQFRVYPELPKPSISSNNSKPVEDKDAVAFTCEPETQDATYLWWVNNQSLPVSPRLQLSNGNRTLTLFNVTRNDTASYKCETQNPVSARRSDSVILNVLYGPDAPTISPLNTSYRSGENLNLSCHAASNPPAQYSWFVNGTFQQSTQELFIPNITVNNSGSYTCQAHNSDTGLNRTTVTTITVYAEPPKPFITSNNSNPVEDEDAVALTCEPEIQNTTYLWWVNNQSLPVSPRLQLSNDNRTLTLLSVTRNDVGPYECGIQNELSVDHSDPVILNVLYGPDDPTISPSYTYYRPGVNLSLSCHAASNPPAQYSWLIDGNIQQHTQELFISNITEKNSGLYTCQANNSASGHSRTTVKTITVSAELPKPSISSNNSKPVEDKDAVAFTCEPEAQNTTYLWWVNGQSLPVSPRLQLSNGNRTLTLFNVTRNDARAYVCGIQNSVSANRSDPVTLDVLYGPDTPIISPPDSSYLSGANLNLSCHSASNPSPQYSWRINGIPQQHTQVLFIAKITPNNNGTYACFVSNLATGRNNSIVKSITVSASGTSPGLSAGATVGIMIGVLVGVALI

Q: “murine IgG2a anti-CEA MAb, COL-1 (antibody)” was tested. Which percent of cells positive (COL-1 binding) (% of the cells) did it give?
A: > 85
